Experimental data: US20210206881A1 (Amgen, published 2021)
Residue numbers refer to the chain shown, from its start.

B1: P74293 BAFF/B7RP1 bispecific molecule (bispecific antibody, human IgG2, kappa)
heavy: EVQLVESGGGLVQPGGSLRLSCAASGFTFSSYWMSWVRQAPGKGLEWVAYIKQDGNEKYYVDSVKGRFTISRDNAKNSLYLQMNSLRAEDTAVYYCAREGILWFGDLPTFWGQGTLVTVSSASTKGPSVFPLAPCSRSTSESTAALGCLVKDYFPEPVTVSWNSGALTSGVHTFPAVLQSSGLYSLSSVVTVPSSNFGTQTYTCNVDHKPSNTKVDKTVERKCCVECPPCPAPPVAGPSVFLFPPKPKDTLMISRTPEVTCVVVDVSHEDPEVQFNWYVDGVEVHNAKTKPREEQFNSTFRVVSVLTVVHQDWLNGKEYKCKVSNKGLPAPIEKTISKTKGQPREPQVYTLPPSREEMTKNQVSLTCLVKGFYPSDIAVEWESNGQPENNYKTTPPMLDSDGSFFLYSKLTVDKSRWQQGNVFSCSVMHEALHNHYTQKSLSLSPGKGGGGGLPGCKWDLLIKQWVCDPLGSGSATGGSGSVASSGSGSATHLLPGCKWDLLIKQWVCDPL
light: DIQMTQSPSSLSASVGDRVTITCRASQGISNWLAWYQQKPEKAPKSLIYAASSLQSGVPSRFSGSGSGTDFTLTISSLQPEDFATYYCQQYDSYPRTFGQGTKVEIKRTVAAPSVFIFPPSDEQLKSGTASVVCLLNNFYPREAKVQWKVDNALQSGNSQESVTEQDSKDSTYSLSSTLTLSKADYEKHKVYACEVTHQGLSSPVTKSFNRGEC
notes: also called anti-BAFF/B7RP1 bispecific P74293
B2: P74294 BAFF/B7RP1 bispecific molecule (bispecific antibody, human IgG2, kappa)
heavy: B1 heavy with V482S
light: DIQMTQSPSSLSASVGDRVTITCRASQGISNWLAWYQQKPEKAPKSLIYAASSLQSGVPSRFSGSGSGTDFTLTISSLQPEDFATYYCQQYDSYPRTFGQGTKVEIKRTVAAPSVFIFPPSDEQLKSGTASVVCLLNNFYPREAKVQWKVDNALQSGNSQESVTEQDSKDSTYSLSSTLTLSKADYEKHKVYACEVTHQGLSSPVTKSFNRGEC
notes: variant of P71619 with a modified linker

Assays:
[1] = target: B7RP1 used in the cynomolgus monkey T cell proliferation assay; assay: cell-based or functional assay
[2] = target: T1, human B-cell activating factor (BAFF) (human, UniProt Q9Y275 134-285); assay: cell-based or functional assay
[3] = target: T2, human B7RP1-Fc fusion protein (human, UniProt O75144 19-256, limits assumed); assay: cell-based or functional assay
T2 sequence (looked up): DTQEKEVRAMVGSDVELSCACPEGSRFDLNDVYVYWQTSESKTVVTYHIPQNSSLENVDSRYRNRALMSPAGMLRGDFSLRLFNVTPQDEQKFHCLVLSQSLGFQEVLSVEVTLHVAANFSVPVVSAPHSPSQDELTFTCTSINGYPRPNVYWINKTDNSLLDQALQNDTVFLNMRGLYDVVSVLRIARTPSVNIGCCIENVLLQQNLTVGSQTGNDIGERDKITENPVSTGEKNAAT

[4] = target: BAFF used in the cynomolgus monkey B cell proliferation assay; assay: cell-based or functional assay
[5] = target: cynomolgus monkey BAFF (cynomolgus monkey, UniProt A0A2K5V2X4 134-285); assay: KinExA (Kinetic Exclusion Assay)
Experimental: (§1) The binding affinities of the heterodimeric bispecific antibodies P74293 and P74294 to BAFF and B7RP1 were measured by Kinetic Exclusion Assay (KinExA®; Sapidyne Instruments, Boise, Id.). […] In addition, both of these bispecifics have similar binding affinities to cynomolgus monkey BAFF compared to human BAFF and to cynomolgus monkey B7RP1 compared to human B7RP1.

[6] = target: T3, human B7-related protein 1 (B7RP1) (human, UniProt O75144 19-256, limits assumed); assay: KinExA (Kinetic Exclusion Assay)
T3 construct: also called human B7RP1; ICOSLG
T3 sequence (looked up): T2 sequence (looked up)
Experimental: as §1

[7] = target: T1, human B-cell activating factor (BAFF); assay: KinExA (Kinetic Exclusion Assay)
Experimental: as §1

[8] = target: T4, cynomolgus monkey B7RP1 (cynomolgus monkey, UniProt A0A2K5TK64 19-256); assay: KinExA (Kinetic Exclusion Assay)
T4 sequence: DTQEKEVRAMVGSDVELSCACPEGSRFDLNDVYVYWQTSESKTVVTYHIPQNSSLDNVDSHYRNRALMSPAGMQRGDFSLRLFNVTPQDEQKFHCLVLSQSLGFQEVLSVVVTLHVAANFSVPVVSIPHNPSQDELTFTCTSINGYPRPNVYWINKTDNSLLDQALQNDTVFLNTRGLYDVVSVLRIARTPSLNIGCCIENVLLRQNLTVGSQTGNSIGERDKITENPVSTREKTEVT
Experimental: as §1

T1 sequence (Q9Y275 134-285 limits assumed): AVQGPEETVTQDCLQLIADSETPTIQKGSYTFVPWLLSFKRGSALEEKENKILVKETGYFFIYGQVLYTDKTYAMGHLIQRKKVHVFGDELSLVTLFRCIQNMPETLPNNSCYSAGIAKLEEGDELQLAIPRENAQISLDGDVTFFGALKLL

| Binder | IC50 (nM) for inhibition of B7RP1-mediated cynomolgus monkey T cell proliferation [1] | IC50 (nM) for inhibition of BAFF-mediated human B cell proliferation [2] | IC50 (nM) for inhibition of B7RP1-mediated human T cell proliferation [3] | IC50 (nM) for inhibition of BAFF-mediated cynomolgus monkey B cell proliferation [4] | Kd [5] | Kd [6] | Kd [7] | Kd [8] |
| --- | --- | --- | --- | --- | --- | --- | --- | --- |
| B1 | 0.29 nM | 0.86 nM | 1.36 nM | 1.6 nM | 22.3 pM | 38 pM | 29 pM | 49.4 pM |
| B2 | – | 0.96 nM | 0.98 nM | 1.8 nM | 17.4 pM | 41 pM | 37 pM | 45.2 pM |
